Experimental findings from paper PMC3673036 (Bioscience Reports, 2013) are described below.

Residue numbers refer to the chain shown, from its start. Names may count otherwise.

Series [1] concerns the target T1, EphB2 (Homo sapiens, UniProt P29323).
T1 construct: kinase domain 604-898 without juxtamembrane region; N-terminal His6-TEV tag cleaved (GSS left); E. coli BL21 Star (DE3), PTP1B co-expressed; unphosphorylated; synthetic codon-optimized gene
T1 sequence (P29323 604-898): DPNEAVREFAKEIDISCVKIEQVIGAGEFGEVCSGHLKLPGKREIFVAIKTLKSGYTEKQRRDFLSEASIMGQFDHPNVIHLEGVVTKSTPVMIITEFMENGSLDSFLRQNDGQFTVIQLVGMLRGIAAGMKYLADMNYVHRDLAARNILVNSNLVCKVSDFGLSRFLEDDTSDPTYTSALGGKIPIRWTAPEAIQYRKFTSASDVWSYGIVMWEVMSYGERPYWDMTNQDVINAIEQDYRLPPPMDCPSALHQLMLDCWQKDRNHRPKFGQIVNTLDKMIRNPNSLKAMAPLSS
As to the kind of experiment: ADP-Glo luminescent kinase assay, Michaelis-Menten fit. It is filed as biochemical. Particulars: […] poly-(Glu:Tyr) […], MgCl2, Hepes pH […]°C; read-out: Km ATP. The text has this: ADP-Glo luminescent kinase assay, Michaelis-Menten fit on EphB2
(ADP-Glo first removes unused ATP, then detects ADP through luciferase.)

A further series has as its target T2, EphB1 (Homo sapiens, UniProt P54762).
T2 construct: kinase domain 602-896 without juxtamembrane region; N-terminal His6-TEV tag cleaved (GSS left); E. coli BL21 Star (DE3), PTP1B co-expressed; unphosphorylated; synthetic codon-optimized gene
T2 sequence (P54762 602-896): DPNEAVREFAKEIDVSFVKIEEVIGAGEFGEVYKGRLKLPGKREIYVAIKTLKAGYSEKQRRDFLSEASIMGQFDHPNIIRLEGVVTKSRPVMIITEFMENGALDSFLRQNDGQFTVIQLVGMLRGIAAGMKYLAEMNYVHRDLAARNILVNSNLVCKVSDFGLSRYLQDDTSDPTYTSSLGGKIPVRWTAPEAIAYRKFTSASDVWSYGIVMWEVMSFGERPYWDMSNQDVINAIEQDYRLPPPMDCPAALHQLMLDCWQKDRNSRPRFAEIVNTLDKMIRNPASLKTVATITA
As to the kind of experiment: ADP-Glo luminescent kinase assay. It is filed as biochemical. Particulars: ATP and poly-(Glu:Tyr) […] at Km of each kinase; MgCl2, Hepes pH […]°C, […] min, […] DMSO; unreliable: below assay tight binding limit of about […]. The source says: ADP-Glo luminescent kinase assay on EphB1

Series [2] addresses T1, EphB2. Put plainly: ADP-Glo luminescent kinase assay. As to conditions: ATP and poly-(Glu:Tyr) […] at Km of each kinase; MgCl2, Hepes pH […]°C, […] min, […] DMSO; unreliable: below assay tight binding limit of about […]. It is filed as biochemical. The source says:
ADP-Glo luminescent kinase assay on EphB2

Substrate in series [3]: Nc1ncnc2c1ncn2[C@@H]1O[C@H](COP(=O)(O)OP(=O)(O)OP(=O)(O)O)[C@@H](O)[C@H]1O
As to the kind of experiment: ADP-Glo luminescent kinase assay, Michaelis-Menten fit. It is filed as biochemical, Homo sapiens. As to conditions: […] poly-(Glu:Tyr) […], MgCl2, Hepes pH […]. The source says:
ADP-Glo luminescent kinase assay, Michaelis-Menten fit on EphB4

Substrate in series [4]: Nc1ncnc2c1ncn2[C@@H]1O[C@H](COP(=O)(O)OP(=O)(O)OP(=O)(O)O)[C@@H](O)[C@H]1O
Described as above. It is filed as biochemical, Homo sapiens. Particulars: […] poly-(Glu:Tyr) […], MgCl2, Hepes pH […]. The text has this: ADP-Glo luminescent kinase assay, Michaelis-Menten fit on EphB3
The source holds these as a separate data set.

Substrate in series [5]: Nc1ncnc2c1ncn2[C@@H]1O[C@H](COP(=O)(O)OP(=O)(O)OP(=O)(O)O)[C@@H](O)[C@H]1O
Described as above. It is filed as biochemical, Homo sapiens. Particulars: […] poly-(Glu:Tyr) […], MgCl2, Hepes pH […]. The text has this:
ADP-Glo luminescent kinase assay, Michaelis-Menten fit on EphB1
The source holds these as a separate data set.

The Km is the substrate concentration at which the rate is half of its maximum. `Nc1ncnc2c1ncn2[C@@H]1O[C@H](COP(=O)(O)OP(=O)(O)OP(=O)(O)O)[C@@H](O)[C@H]1O` [ATP]: at EphB2 [1], the Km worked out at 751 ± 80 µM.

As to `Cc1nc(Nc2ncc(C(=O)Nc3c(C)cccc3Cl)s2)cc(N2CCN(CCO)CC2)n1` [Dasatinib], the “EphB1 / IC50” value on EphB1 amounted to 0.01 µM. Moreover, the “EphB2 / IC50” value at EphB2 [2] is 7 nM.

B1: EphB4 (Homo sapiens) (protein)
chain: DPNEAVREFAKEIDVSYVKIEEVIGAGEFGEVCRGRLKAPGKKESCVAIKTLKGGYTERQRREFLSEASIMGQFEHPNIIRLEGVVTNSMPVMILTEFMENGALDSFLRLNDGQFTVIQLVGMLRGIASGMRYLAEMSYVHRDLAARNILVNSNLVCKVSDFGLSRFLEENSSDPTYTSSLGGKIPIRWTAPEAIAFRKFTSASDAWSYGIVMWEVMSFGERPYWDMSNQDVINAIEQDYRLPPPPDCPTSLHQLMLDCWQKDRNARPRFPQVVSALDKMIRNPASLKIVARENG
notes: kinase domain 598-892 without juxtamembrane region; N-terminal His6-TEV tag cleaved (GSS left); E. coli BL21 Star (DE3), PTP1B and GroES/GroEL co-expressed; unphosphorylated; synthetic codon-optimized gene
One may read the kcat as the maximal rate divided by the concentration of active sites. As to B1, in series [3], the Km turned out to be 497 ± 39 µM and the kcat came out at 0.51 ± 0.01 s⁻¹.

B2: EphB3 (Homo sapiens) (protein)
chain: DPNEAVREFAKEIDVSCVKIEEVIGAGEFGEVCRGRLKQPGRREVFVAIKTLKVGYTERQRRDFLSEASIMGQFDHPNIIRLEGVVTKSRPVMILTEFMENCALDSFLRLNDGQFTVIQLVGMLRGIAAGMKYLSEMNYVHRDLAARNILVNSNLVCKVSDFGLSRFLEDDPSDPTYTSSLGGKIPIRWTAPEAIAYRKFTSASDVWSYGIVMWEVMSYGERPYWDMSNQDVINAVEQDYRLPPPMDCPTALHQLMLDCWVRDRNLRPKFSQIVNTLDKLIRNAASLKVIASAQS
notes: kinase domain 616-910 without juxtamembrane region; N-terminal His6-TEV tag cleaved (GSS left); E. coli BL21 Star (DE3), PTP1B co-expressed; unphosphorylated; synthetic codon-optimized gene
B2: in series [4], the Km was found to be 506 ± 48 µM and the kcat came to 0.43 ± 0.01 s⁻¹.

B3: EphB3 (Homo sapiens; C717G) (protein)
chain: B2 chain with C102G
notes: as for B2
Turning to B3, in series [4], the Km amounted to 659 ± 67 µM and the kcat was 0.86 ± 0.03 s⁻¹.

B4: EphB1 (Homo sapiens) (protein)
chain: T2 sequence (P54762 602-896)
notes: kinase domain 602-896 without juxtamembrane region; N-terminal His6-TEV tag cleaved (GSS left); E. coli BL21 Star (DE3), PTP1B co-expressed; unphosphorylated; synthetic codon-optimized gene
For the molecule B4, in series [5], the Km was 555 ± 36 µM and the kcat was determined as 0.80 ± 0.02 s⁻¹.
